These results are taken from EP4729537A1, “B-LACTAMASE-INHIBITING ANTIBODY AND USE THEREOF IN THE TREATMENT AND/OR PREVENTION OF INFECTIONS CAUSED BY B-LACTAMASE-PRODUCING BACTERIA” (priority 2023, dated 2024).

Series [1] deals with O=C(Cc1cccs1)N[C@@H]1C(=O)N2C(C(=O)O)=C(/C=C/c3ccc([N+](=O)[O-])cc3[N+](=O)[O-])CS[C@H]12. Nature of the series: nitrocefin hydrolysis assay with E. coli BL21(DE3) cells expressing the β-lactamase in the periplasm. The class given is cell-based, Klebsiella pneumoniae. To be noted: other: E. coli cells, control without antibody (controls of the B2 and B5 runs).
Method: (§1) An in vivo assay was conducted to test the inhibitory capacity of four β-lactamases from three resistant microorganisms: BlaMab from Mycobacterium abscessus, KPC-2 (UNIPROT Q9F663) and OXA-48 (UNIPROT Q6XEC0) from Klebsiella pneumoniae, and VIM-2 (UNIPROT B8QIQ9) from Pseudomonas aeruginosa. The assay utilized BL21(DE3) strain cells of Escherichia coli transformed with the expression vector pET26b(+) along with the gene sequence of each β-lactamase. Cells successfully transformed with the vector and insert were selected using a Kanamycin resistance gene (KanR) present in the vector. […] Additionally, the pET26b(+) vector has an IPTG-inducible promoter to activate the translation of the corresponding β-lactamase. The plasmid also includes a pelB export signal directing the β-lactamase to the periplasmic space of the bacteria for the inhibition assay with Ndis (nanobodies, single-domain antibodies).
(§2) This compound changes color from yellow to red when hydrolyzed by β-lactamase, which can be quantified by measuring absorbance at 490nm.
Series [2] shares this test system. The series is described as above. Format: cell-based, Pseudomonas aeruginosa. To be noted: other: E. coli cells, control without antibody (controls of the B2 and B5 runs).
Method: as §1, §2

Values joined by “and” are separate entries in the source; they are usually repeats but may differ in a detail not shown here. Equal values may be shown once.

As for “OXA-48 (UNIPROT Q6XEC0) from Klebsiella pneumoniae (Klebsiella pneumoniae)”, the Michaelis-Menten constant (Km) in series [1] worked out at 4.48 µM.
Regarding “VIM-2 (UNIPROT B8QIQ9) from Pseudomonas aeruginosa (Pseudomonas aeruginosa)”, the Km in series [2] was 4.35 µM and 6.75 µM.
